{
  "source": "patent US20260232769A1",
  "about": "(WUXI BIOLOGICS IRELAND, published 2026)",
  "biological_target": "IL-2Rα/β/γc complex (high affinity receptor) on human activated CD8+ T cells (human) (UniProt P01589)",
  "assay": "cell-based or functional assay",
  "data": [
    {"binder": "W3XX115-BMK8 (Fc fusion, part only; not given: Fab heavy and light chains, part only) APTSSSTKKTQLQLEHLRLDLEMILNGINNYKNPKLTRMLTFKFYMPKKATELKHLQCLEEELKPLEEVLNLAQSKNFHLRPRDLISNINVIVLELKGSETTFMCEYADETATIVEFLNRWITFCKSIISTLTESKYGPPCPPCPAPEFLGGPSVFLFPPKPKDTLMISRTPEVTCVVVDVSQEDPEVQFNWYVDGVEVHNAKTKPREEQFNSTYRVVSVLTVLHQDWLNGKEYKCKVSNKGLPSSIEKTISKAKGQPREPQVYTLPPCQEEMTKNQVSLWCLVKGFYPSDIAVEWESNGQPENNYKTTPPVLDSDGSFFLYSRLTVDKSRWQEGNVFSCSVMHEALHNHYTQKSLSLSLG", "values": [
      {"measurement": "Potency reduction, pSTAT5, human activated CD8+ T", "result": 7.2, "unit": "fold"},
      {"measurement": "pSTAT5 EC50, human activated CD8+ T", "result": 0.12, "unit": "nM"}
    ]}
  ]
}
